B1: Progesterone-induced-blocking factor 1 (Homo sapiens), Q8WXW3 (parent)
chain: MSRKISKESKKVNISSSLESEDISLETTVPTDDISSSEEREGKVRITRQLIERKELLHNIQLLKIELSQKTMMIDNLKVDYLTKIEELEEKLNDALHQKQLLTLRLDNQLAFQQKDASKYQELMKQEMETILLRQKQLEETNLQLREKAGDVRRNLRDFELTEEQYIKLKAFPEDQLSIPEYVSVRFYELVNPLRKEICELQVKKNILAEELSTNKNQLKQLTETYEEDRKNYSEVQIRCQRLALELADTKQLIQQGDYRQENYDKVKSERDALEQEVIELRRKHEILEASHMIQTKERSELSKEVVTLEQTVTLLQKDKEYLNRQNMELSVRCAHEEDRLERLQAQLEESKKAREEMYEKYVASRDHYKTEYENKLHDELEQIRLKTNQEIDQLRNASREMYERENRNLREARDNAVAEKERAVMAEKDALEKHDQLLDRYRELQLSTESKVTEFLHQSKLKSFESERVQLLQEETARNLTQCQLECEKYQKKLEVLTKEFYSLQASSEKRITELQAQNSEHQARLDIYEKLEKELDEIIMQTAEIENEDEAERVLFSYGYGANVPTTAKRRLKQSVHLARRVLQLEKQNSLILKDLEHRKDQVTQLSQELDRANSLLNQTQQPYRYLIESVRQRDSKIDSLTESIAQLEKDVSNLNKEKSALLQTKNQMALDLEQLLNHREELAAMKQILVKMHSKHSENSLLLTKTEPKHVTENQKSKTLNVPKEHEDNIFTPKPTLFTKKEAPEWSKKQKMKT
partner: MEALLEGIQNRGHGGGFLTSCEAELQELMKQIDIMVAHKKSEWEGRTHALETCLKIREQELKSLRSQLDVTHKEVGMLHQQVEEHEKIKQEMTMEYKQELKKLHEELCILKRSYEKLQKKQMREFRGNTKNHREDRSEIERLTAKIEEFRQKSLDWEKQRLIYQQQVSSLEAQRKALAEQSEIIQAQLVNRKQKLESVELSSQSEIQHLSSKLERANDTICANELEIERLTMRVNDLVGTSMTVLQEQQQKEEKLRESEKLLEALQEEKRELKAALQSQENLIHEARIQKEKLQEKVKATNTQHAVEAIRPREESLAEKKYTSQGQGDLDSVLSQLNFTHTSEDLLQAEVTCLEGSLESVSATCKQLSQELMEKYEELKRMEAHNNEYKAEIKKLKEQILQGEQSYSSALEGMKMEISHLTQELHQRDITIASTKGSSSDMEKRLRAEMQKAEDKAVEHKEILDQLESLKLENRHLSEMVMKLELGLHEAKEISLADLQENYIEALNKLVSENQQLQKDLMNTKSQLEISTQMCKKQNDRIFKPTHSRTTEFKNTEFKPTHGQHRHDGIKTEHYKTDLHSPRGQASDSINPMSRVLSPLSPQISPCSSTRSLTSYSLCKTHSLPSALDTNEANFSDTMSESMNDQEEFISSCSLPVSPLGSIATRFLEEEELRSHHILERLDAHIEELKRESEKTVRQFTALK

Variants of: B1
Conditions: with cep63_human CEP63, Q96MT8

| effect of a mutation on the interaction | Variant |
| --- | --- |
| disrupting interaction strength | E89Q |

— IntAct's records for PubMed 26297806
